Assay results from patent US20140341881A1 (DERMADIS, published 2014).

T1: human kallikrein 5 (hK5) (human, UniProt Q9Y337 67-293, limits assumed)
T1 sequence (looked up): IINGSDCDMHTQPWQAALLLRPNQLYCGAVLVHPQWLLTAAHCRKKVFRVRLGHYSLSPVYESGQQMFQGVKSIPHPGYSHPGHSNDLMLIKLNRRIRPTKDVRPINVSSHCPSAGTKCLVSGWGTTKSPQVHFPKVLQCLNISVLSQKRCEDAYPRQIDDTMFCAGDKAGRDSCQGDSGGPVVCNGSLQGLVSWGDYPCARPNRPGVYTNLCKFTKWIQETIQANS

T2: human kallikrein 8 (hK8) (human, UniProt O60259 33-260)
T2 sequence (looked up): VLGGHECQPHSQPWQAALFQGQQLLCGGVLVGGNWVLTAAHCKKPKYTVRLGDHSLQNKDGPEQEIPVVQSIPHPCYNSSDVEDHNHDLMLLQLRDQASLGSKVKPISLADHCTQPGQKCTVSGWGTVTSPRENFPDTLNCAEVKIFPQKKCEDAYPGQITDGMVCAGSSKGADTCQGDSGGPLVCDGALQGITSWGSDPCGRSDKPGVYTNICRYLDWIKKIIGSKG

T3: human kallikrein 14 (hK14) (human, UniProt Q9P0G3 25-251, limits assumed)
T3 construct: range counted on GenBank AAK48524 (printed), which may differ from the UniProt numbering; also called recombinant hK14
T3 sequence (looked up): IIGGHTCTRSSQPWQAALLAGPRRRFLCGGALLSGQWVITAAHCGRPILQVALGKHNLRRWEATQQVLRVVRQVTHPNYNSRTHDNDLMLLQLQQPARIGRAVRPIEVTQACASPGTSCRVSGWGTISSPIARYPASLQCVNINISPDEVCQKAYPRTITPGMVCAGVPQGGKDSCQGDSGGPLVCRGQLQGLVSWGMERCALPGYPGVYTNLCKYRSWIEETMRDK


Key:
[1] = target: T4, human kallikrein 2 (hK2) (human, UniProt P20151 25-261); test: cell-based or functional assay
[2] = target: prostate specific antigen (PSA, hK3) (human, UniProt P07288 25-261); test: cell-based or functional assay
[3] = target: human kallikrein hK1 (human, UniProt P06870 25-262); test: cell-based or functional assay
[4] = target: urokinase plasminogen activator (uPA) (UniProt P00749 21-431, limits assumed); test: cell-based or functional assay
[5] = target: T4, human kallikrein 2 (hK2); test: progress curve, pseudo-first order, fluorogenic substrate
Protocol: Under these conditions, a fixed amount of enzyme (2 nM) was mixed with different concentrations of inhibitor (0-800 nM) and an excess of substrate (10 μM). Each reaction was made in reaction buffer (50 mM Tris pH 7.5, 150 mM NaCl, 0,05% Triton X-100, 0.01% BSA) at 25° C. for 45 min and the rate of product formation was measured using a FLₓ800 fluorescence 96-well microplate reader (Biotek, USA). In this model, inhibition is considered to be irreversible over the course of reaction and the progress of enzyme activity is expressed by product formation (P), beginning at a rate (vz) and is inhibited over time (t) at a first-order rate (kobs), rate constant that is dependent only on inhibitor concentration.

[6] = target: T4, human kallikrein 2 (hK2); test: residual enzyme activity against [I]o/[E]o, fluorogenic substrate
Protocol: The stoichiometry of inhibition (SI) values were determined for the inhibition of rACTWT and its variants with hK2 and different other enzymes. An initial test was made with a molar excess of rACT (100 fold) over hK2, PSA, hK1, chymotrypsin (Chtr), plasma kallikrein (PK), urokinase (uPA) and human neutrophile elastase (HNE) enzymes. The reaction was carried out for 30 min at 25° C. (90 min at 37° C. for PSA) in reaction buffer (50 mM Tris pH 7.5, 150 mM NaCl, 0,05% Triton X-100, 0.01% BSA) and residual enzyme activity was measured by adding fluorescent substrates (Z-Phe-Arg-AMC for hK1, hK2 and PK, Suc-Ala-Ala-Pro-Phe-AMC for Chtr, Z-Gly-Gly-Arg-AMC for uPA, MeOSuc-Ala-Ala-Pro-Val-AMC for HNE, and CFP-TFRSA-YFP (TFRSA SEQ ID NO:137) for PSA). Activity of enzyme in presence of inhibitors was compared to uninhibited reaction. For reactions where an inhibition was observed, SI was determined by incubating different concentrations of recombinant serpins. Using linear regression analysis of fractional activity (velocity of inhibited enzyme reaction/velocity of uninhibited enzyme reaction) versus the molar ratio of the inhibitor to enzyme ([Iₒ]/[Eₒ]), the stoichiometry of inhibition, corresponding to the abscissa intercept, was obtained.

[7] = target: T4, human kallikrein 2 (hK2); test: cell-based or functional assay; remark: listed apart in the source
[8] = target: human kallikrein 4 (hK4) (human, UniProt Q9Y5K2 31-254, limits assumed); test: cell-based or functional assay
human kallikrein 4 (hK4), sequence (Q9Y5K2 31-254 limits assumed): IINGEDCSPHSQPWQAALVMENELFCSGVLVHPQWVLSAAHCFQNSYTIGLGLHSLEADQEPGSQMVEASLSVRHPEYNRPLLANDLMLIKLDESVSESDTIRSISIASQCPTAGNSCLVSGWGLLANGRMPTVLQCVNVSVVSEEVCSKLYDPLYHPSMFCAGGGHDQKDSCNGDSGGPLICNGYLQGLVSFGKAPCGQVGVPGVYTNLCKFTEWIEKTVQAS

[9] = target: T1, human kallikrein 5 (hK5); test: cell-based or functional assay
[10] = target: human kallikrein 6 (hK6) (human, UniProt Q92876 22-244); test: cell-based or functional assay
[11] = target: T2, human kallikrein 8 (hK8); test: cell-based or functional assay
[12] = target: T3, human kallikrein 14 (hK14); test: progress curve; * [I0]/[E0] < 5 * SI
Protocol: The association rate constants for interactions of hK14, with different inhibitors were determined under pseudo-first order conditions using the progress curve method (Morrison and Walsh, 1988). Under these conditions, a fixed amount of enzyme (2 nM) was mixed with different concentrations of inhibitor (0-80 nM) and an excess of substrate (20 μM). Reactions were performed in reaction buffer (50 mM Tris pH 7.5, 150 mM NaCl, 0.05% Triton X-100, 0.01% BSA) at 37° C. for 45 min and the rate of product formation was measured using a FLₓ800 fluorescence 96-well microplate reader (Biotek, USA) Inhibition is considered to be irreversible over the course of reaction and the progression of enzyme activity is expressed as product formation (P), beginning at a rate (vz) and is inhibited over time (t) at a first-order rate (kobs), where the rate constant is only dependent on the inhibitor concentration.

[13] = target: T3, human kallikrein 14 (hK14); test: residual hK14 activity against [I0]/[E0]
Protocol: SI values of rAAT, rACT, and their variants were determined with hK14 incubating the protease with varying concentrations of inhibitor. After an incubation of 4 hours at 37° C. in reaction buffer (50 mM Tris, pH 7.5, 150 mM NaCl, 0.05% Triton X-100, 0.01% BSA), the residual activity was detected by the addition of fluorescent substrate (Boc-Val-Pro-Arg-AMC). Fluorescence was measured with excitation at 340 nm (±15) and emission at 485 nm (±10) in black 96 well plates using a microplate fluorescence reader FLₓ800 (Bio-Tek Instruments, Inc.). The SI value corresponds to the abscissa intercept of the linear regression analysis of fractional velocity (velocity of inhibited enzyme reaction (vi)/velocity of uninhibited enzyme reaction (v₀)) vs. the molar ratio of the inhibitor to enzyme ([I₀]/[E₀]).

| Binder | INHIBITION % [1] [%] | INHIBITION % [2] [%] | INHIBITION % [3] [%] | INHIBITION % [4] [%] | kon [5] [M⁻¹ s⁻¹] | SI (stoichiometry of inhibition) [6] | % Inhibition [7] [%] | % Inhibition [8] [%] | % Inhibition [9] [%] | % Inhibition [10] [%] | % Inhibition [11] [%] | kon [12] [M⁻¹ s⁻¹] | SI (stoichiometry of inhibition) [13] |
| --- | --- | --- | --- | --- | --- | --- | --- | --- | --- | --- | --- | --- | --- |
| ACTC11g (other) MRGSHHHHHHSRHPNSPLDEENLTQENQDRGTHVDLGLASANVDFAFSLYKQLVLKAPDKNVIFSPLSISTALAFLSLGAHNTTLTEILKGLKFNLTETSEAEIHQSFQHLLRTLNQSSDELQLSMGNAMFVKEQLSLLDRFTEDAKRLYGSEAFATDFQDSAAAKKLINDYVKNGTRGKITDLIKDLDSQTMMVLVNYIFFKAKWEMPFDPQDTHQSRFYLSKKKWVMVPMMSLHHLTIPYFRDEELSCTVVELKYTGNASALFILPDQDKMEEVEAMLLPETLKRWRDSLEFREIGELYLPKFSISRDYNLNDILLQLGIEEAFTSKADLSGITGARNLAVSQVVHKAVLDVFEEGTEASAATAVKITGRQTNVETRTIVRFNRPFLMIIVPTDTQNIFFMSKVTNPKQA |  |  |  |  |  |  | 25 | 0 | 5 | 0 | 0 | 7600 | 13.8 |
| ACTE5 (other) MRGSHHHHHHSRHPNSPLDEENLTQENQDRGTHVDLGLASANVDFAFSLYKQLVLKAPDKNVIFSPLSISTALAFLSLGAHNTTLTEILKGLKFNLTETSEAEIHQSFQHLLRTLNQSSDELQLSMGNAMFVKEQLSLLDRFTEDAKRLYGSEAFATDFQDSAAAKKLINDYVKNGTRGKITDLIKDLDSQTMMVLVNYIFFKAKWEMPFDPQDTHQSRFYLSKKKWVMVPMMSLHHLTIPYFRDEELSCTVVELKYTGNASALFILPDQDKMEEVEAMLLPETLKRWRDSLEFREIGELYLPKFSISRDYNLNDILLQLGIEEAFTSKADLSGITGARNLAVSQVVHKAVLDVFEEGTEASAATAVKINQRSSLVETRTIVRFNRPFLMIIVPTDTQNIFFMSKVTNPKQA |  |  |  |  |  |  | 0 | 75 | 10 | 0 | 10 |  |  |
| ACTF11 (other) MRGSHHHHHHSRHPNSPLDEENLTQENQDRGTHVDLGLASANVDFAFSLYKQLVLKAPDKNVIFSPLSISTALAFLSLGAHNTTLTEILKGLKFNLTETSEAEIHQSFQHLLRTLNQSSDELQLSMGNAMFVKEQLSLLDRFTEDAKRLYGSEAFATDFQDSAAAKKLINDYVKNGTRGKITDLIKDLDSQTMMVLVNYIFFKAKWEMPFDPQDTHQSRFYLSKKKWVMVPMMSLHHLTIPYFRDEELSCTVVELKYTGNASALFILPDQDKMEEVEAMLLPETLKRWRDSLEFREIGELYLPKFSISRDYNLNDILLQLGIEEAFTSKADLSGITGARNLAVSQVVHKAVLDVFEEGTEASAATAVKQRLRDALVETRTIVRFNRPFLMIIVPTDTQNIFFMSKVTNPKQA |  |  |  |  |  |  | 25 | 45 | 15 | 0 | 0 |  |  |

Second part, the binder after the results:

| INHIBITION % [1] [%] | INHIBITION % [2] [%] | INHIBITION % [3] [%] | INHIBITION % [4] [%] | kon [5] [M⁻¹ s⁻¹] | SI (stoichiometry of inhibition) [6] | % Inhibition [7] [%] | % Inhibition [8] [%] | % Inhibition [9] [%] | % Inhibition [10] [%] | % Inhibition [11] [%] | kon [12] [M⁻¹ s⁻¹] | SI (stoichiometry of inhibition) [13] | Binder |
| --- | --- | --- | --- | --- | --- | --- | --- | --- | --- | --- | --- | --- | --- |
| 73 | 0 | 0 | 0 | 595 | 139 |  |  |  |  |  |  |  | rACT5.18 (other, recombinant ACT variant, RSL substrate peptide ERVSP; N-terminal His tag, E. coli TG1; also called MD518) MRGSHHHHHHSRHPNSPLDEENLTQENQDRGTHVDLGLASANVDFAFSLYKQLVLKAPDKNVIFSPLSISTALAFLSLGAHNTTLTEILKGLKFNLTETSEAEIHQSFQHLLRTLNQSSDELQLSMGNAMFVKEQLSLLDRFTEDAKRLYGSEAFATDFQDSAAAKKLINDYVKNGTRGKITDLIKDLDSQTMMVLVNYIFFKAKWEMPFDPQDTHQSRFYLSKKKWVMVPMMSLHHLTIPYFRDEELSCTVVELKYTGNASALFILPDQDKMEEVEAMLLPETLKRWRDSLEFREIGELYLPKFSISRDYNLNDILLQLGIEEAFTSKADLSGITGARNLAVSQVVHKAVLDVFEEGTEASAATAVKITERVSPVETRTIVRFNRPFLMIIVPTDTQNIFFMSKVTNPKQA |
|  |  |  |  |  |  | 15 | 0 | 50 | 20 | 0 | 3200 | 13.3 | ACTG1 (other) MRGSHHHHHHSRHPNSPLDEENLTQENQDRGTHVDLGLASANVDFAFSLYKQLVLKAPDKNVIFSPLSISTALAFLSLGAHNTTLTEILKGLKFNLTETSEAEIHQSFQHLLRTLNQSSDELQLSMGNAMFVKEQLSLLDRFTEDAKRLYGSEAFATDFQDSAAAKKLINDYVKNGTRGKITDLIKDLDSQTMMVLVNYIFFKAKWEMPFDPQDTHQSRFYLSKKKWVMVPMMSLHHLTIPYFRDEELSCTVVELKYTGNASALFILPDQDKMEEVEAMLLPETLKRWRDSLEFREIGELYLPKFSISRDYNLNDILLQLGIEEAFTSKADLSGITGARNLAVSQVVHKAVLDVFEEGTEASAATAVKGSLRSALVETRTIVRFNRPFLMIIVPTDTQNIFFMSKVTNPKQA |
|  |  |  |  |  |  | 0 | 0 | 10 | 0 | 0 |  |  | ACTG1g (other) MRGSHHHHHHSRHPNSPLDEENLTQENQDRGTHVDLGLASANVDFAFSLYKQLVLKAPDKNVIFSPLSISTALAFLSLGAHNTTLTEILKGLKFNLTETSEAEIHQSFQHLLRTLNQSSDELQLSMGNAMFVKEQLSLLDRFTEDAKRLYGSEAFATDFQDSAAAKKLINDYVKNGTRGKITDLIKDLDSQTMMVLVNYIFFKAKWEMPFDPQDTHQSRFYLSKKKWVMVPMMSLHHLTIPYFRDEELSCTVVELKYTGNASALFILPDQDKMEEVEAMLLPETLKRWRDSLEFREIGELYLPKFSISRDYNLNDILLQLGIEEAFTSKADLSGITGARNLAVSQVVHKAVLDVFEEGTEASAATAVKGSLRGALVETRTIVRFNRPFLMIIVPTDTQNIFFMSKVTNPKQA |
